Data from paper PMC7855068 (Nature structural & molecular biology, 2020).

T1: Arp7/Arp9/Rtt102 heterotrimer (S. cerevisiae, UniProt Q12406;Q05123;P53330)
T1 sequence 1: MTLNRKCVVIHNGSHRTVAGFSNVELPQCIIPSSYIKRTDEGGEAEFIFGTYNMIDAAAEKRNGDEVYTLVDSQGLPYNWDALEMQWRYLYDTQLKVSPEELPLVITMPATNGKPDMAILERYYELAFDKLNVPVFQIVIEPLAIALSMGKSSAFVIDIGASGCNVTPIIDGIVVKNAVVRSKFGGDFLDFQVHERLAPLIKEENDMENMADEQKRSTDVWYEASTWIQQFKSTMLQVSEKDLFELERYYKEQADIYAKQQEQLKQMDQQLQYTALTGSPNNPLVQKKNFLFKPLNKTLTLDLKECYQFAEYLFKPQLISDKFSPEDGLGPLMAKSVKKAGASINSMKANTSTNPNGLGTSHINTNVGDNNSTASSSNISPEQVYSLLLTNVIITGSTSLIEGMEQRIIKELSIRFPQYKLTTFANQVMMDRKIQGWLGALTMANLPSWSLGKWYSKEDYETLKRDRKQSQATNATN
T1 sequence 2: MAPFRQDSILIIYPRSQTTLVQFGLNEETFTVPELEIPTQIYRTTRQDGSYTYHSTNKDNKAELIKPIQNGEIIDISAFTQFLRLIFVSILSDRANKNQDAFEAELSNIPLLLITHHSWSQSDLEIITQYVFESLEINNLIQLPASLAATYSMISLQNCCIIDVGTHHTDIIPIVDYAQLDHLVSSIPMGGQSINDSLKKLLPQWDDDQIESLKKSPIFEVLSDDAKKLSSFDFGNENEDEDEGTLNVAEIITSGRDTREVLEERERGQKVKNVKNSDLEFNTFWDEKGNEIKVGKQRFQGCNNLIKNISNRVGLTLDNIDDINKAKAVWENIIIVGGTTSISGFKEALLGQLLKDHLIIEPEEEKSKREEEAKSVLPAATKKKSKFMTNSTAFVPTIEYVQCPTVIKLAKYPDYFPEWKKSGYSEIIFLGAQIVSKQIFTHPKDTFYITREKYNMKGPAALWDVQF
T1 sequence 3: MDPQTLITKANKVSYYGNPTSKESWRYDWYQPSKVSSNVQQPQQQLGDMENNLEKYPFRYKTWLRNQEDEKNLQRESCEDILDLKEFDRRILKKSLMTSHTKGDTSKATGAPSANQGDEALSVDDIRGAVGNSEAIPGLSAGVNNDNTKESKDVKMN

B1: Sth1 (AA 301–1097), truncated ATPase subunit of RSC (domain or fragment)
chain: VRLAEELERQQLLEKRKKERNLHLQKINSIIDFIKERQSEQWSRQERCFQFGRLGASLHNQMEKDEQKRIERTAKQRLAALKSNDEEAYLKLLDQTKDTRITQLLRQTNSFLDSLSEAVRAQQNEAKILHGEEVQPITDEEREKTDYYEVAHRIKEKIDKQPSILVGGTLKEYQLRGLEWMVSLYNNHLNGILADEMGLGKTIQSISLITYLYEVKKDIGPFLVIVPLSTITNWTLEFEKWAPSLNTIIYKGTPNQRHSLQHQIRVGNFDVLLTTYEYIIKDKSLLSKHDWAHMIIDEGHRMKNAQSKLSFTISHYYRTRNRLILTGTPLQNNLPELWALLNFVLPKIFNSAKTFEDWFNTPFANTGTQEKLELTEEETLLIIRRLHKVLRPFLLRRLKKEVEKDLPDKVEKVIKCKLSGLQQQLYQQMLKHNALFVGAGTEGATKGGIKGLNNKIMQLRKICNHPFVFDEVEGVVNPSRGNSDLLFRVAGKFELLDRVLPKFKASGHRVLMFFQMTQVMDIMEDFLRMKDLKYMRLDGSTKTEERTEMLNAFNAPDSDYFCFLLSTRAGGLGLNLQTADTVIIFDTDWNPHQDLQAQDRAHRIGQKNEVRILRLITTDSVEEVILERAMQKLDIDGKVIQAGKFDNKSTAEEQEAFLRRLIESETNRDDDDKAELDDDELNDTLARSADEKILFDKIDKERMNQERADAKAQGLRVPPPRLIQLDELPKVFREDIEEHFKKEDSEPLGRIRQKKRVYYDDGLTEEQFLEAVEDDNMSLEDAIKKRREARERRRLRQ
B2: HSA peptide (Sth1 residues 316–377) (peptide)
peptide: RKKERNLHLQKINSIIDFIKERQSEQWSRQERCFQFGRLGASLHNQMEKDEQKRIERTAKQR
B3: Rtt102 (natural protein)
chain: T1 sequence 3
B4: Arp9 (natural protein)
chain: T1 sequence 2
B5: Arp7 (natural protein)
chain: T1 sequence 1

Experiments:
[1] = target: T1, Arp7/Arp9/Rtt102 heterotrimer; assay: cryo-EM structure
[2] = target: T1, Arp7/Arp9/Rtt102 heterotrimer; assay: circular dichroism
Arp9 = target: B4; assay: cryo-EM structure
Arp7 = target: B5; assay: cryo-EM structure
[3] = target: B1; assay: cryo-EM structure

| binding result (Arp7) | binding result [3] | Binder | also measured |
| --- | --- | --- | --- |
| – | – | B1 | binding result [1]: binds |
| – | – | B2 | binding result [2]: binds |
| binds | – | B3 | binding result (Arp9): binds |
| binds | binds | B4 | – |
| – | binds | B5 | – |
